Our source for the Kd values is patent US20210238260A1 (published 2021).

The labels stand for the following.
T1: Factor VIIIa (FVIIIa), from recombinant FVIII (Kogenate FS; Bayer healthcare) activated with alpha-thrombin (UniProt P00451 20-2351)
T1 sequence (looked up): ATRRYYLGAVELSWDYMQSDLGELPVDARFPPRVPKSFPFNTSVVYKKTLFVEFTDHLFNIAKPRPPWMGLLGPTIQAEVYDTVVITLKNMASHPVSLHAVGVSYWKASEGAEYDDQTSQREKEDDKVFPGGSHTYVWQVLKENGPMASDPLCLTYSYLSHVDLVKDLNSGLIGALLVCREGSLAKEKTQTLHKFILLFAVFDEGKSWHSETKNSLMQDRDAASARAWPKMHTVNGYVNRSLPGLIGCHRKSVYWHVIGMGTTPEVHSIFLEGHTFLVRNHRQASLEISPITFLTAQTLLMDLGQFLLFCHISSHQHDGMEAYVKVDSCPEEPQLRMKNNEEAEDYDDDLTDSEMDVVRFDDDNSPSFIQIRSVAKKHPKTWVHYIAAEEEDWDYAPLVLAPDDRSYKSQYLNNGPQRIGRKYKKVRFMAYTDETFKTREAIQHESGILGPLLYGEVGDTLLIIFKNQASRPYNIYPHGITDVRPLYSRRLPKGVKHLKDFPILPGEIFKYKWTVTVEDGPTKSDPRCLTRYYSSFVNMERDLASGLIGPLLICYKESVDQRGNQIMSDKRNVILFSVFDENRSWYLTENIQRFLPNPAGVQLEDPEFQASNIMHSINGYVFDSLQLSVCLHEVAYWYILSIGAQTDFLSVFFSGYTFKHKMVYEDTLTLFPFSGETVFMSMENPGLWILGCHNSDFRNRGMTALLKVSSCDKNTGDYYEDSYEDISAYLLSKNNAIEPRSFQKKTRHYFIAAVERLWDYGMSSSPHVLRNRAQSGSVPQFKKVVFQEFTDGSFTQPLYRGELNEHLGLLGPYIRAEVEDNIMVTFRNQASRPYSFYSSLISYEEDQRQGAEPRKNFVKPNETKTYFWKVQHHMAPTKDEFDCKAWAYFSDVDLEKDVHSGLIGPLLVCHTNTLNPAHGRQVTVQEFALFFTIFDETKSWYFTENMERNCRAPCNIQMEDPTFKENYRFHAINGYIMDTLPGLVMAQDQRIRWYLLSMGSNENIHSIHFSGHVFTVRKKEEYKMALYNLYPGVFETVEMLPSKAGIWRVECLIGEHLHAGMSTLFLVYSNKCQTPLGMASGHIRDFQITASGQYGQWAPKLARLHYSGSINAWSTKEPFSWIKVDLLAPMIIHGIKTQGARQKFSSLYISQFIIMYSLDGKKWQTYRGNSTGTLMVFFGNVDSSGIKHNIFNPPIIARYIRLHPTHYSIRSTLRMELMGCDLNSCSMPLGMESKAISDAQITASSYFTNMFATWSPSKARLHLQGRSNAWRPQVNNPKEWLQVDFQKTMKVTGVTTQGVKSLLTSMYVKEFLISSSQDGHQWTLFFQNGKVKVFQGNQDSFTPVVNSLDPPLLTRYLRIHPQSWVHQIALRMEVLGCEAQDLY

T2: Factor VIIIa (recombinant FVIII, Kogenate FS, activated with alpha-thrombin) (UniProt P00451 20-2351)
T2 construct: also called FVIIIa
T2 sequence (looked up): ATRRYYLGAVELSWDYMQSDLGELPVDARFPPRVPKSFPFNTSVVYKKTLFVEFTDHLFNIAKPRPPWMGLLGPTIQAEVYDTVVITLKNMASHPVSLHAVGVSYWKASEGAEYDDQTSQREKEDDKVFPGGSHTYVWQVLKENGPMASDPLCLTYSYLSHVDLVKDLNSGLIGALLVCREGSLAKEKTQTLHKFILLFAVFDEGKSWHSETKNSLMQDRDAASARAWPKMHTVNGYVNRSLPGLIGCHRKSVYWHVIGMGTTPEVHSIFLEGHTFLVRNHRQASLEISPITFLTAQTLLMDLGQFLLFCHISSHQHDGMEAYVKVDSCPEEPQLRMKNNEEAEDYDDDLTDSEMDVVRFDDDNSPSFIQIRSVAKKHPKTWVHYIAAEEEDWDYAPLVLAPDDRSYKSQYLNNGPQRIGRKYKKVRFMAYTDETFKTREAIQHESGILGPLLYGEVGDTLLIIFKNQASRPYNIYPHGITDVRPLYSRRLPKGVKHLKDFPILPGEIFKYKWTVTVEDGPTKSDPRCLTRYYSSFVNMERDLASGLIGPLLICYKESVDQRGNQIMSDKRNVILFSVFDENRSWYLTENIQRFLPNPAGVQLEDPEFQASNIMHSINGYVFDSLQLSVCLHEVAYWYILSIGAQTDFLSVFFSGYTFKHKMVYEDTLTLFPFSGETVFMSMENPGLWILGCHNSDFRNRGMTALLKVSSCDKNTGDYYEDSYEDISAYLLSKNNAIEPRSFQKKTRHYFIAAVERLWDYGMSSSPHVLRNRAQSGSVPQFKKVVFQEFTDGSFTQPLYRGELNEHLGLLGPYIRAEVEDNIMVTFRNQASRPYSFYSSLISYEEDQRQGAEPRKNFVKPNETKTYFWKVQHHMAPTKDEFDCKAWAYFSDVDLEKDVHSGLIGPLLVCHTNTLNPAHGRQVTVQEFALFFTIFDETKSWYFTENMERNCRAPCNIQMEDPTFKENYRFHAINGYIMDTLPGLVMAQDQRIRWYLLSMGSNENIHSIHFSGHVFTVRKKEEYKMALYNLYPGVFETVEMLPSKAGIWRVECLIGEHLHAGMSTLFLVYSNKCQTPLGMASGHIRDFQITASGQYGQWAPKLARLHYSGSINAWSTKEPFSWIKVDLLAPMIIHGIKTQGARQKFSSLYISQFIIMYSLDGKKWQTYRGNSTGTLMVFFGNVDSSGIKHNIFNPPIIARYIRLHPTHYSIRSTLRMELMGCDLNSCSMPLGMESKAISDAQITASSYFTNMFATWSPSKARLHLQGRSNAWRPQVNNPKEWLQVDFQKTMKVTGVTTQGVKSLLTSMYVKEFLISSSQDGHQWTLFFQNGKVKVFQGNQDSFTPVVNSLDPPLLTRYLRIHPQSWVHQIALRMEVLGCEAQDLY

B1: FIXa variant D104N/K106S/K247N/N249S/N260S (enzyme)
light: YNSGKLEEFVQGNLERECMEEKCSFEEAREVFENTERTTEFWKQYVDGDQCESNPCLNGGSCKDDINSYECWCPFGFEGKNCELDVTCNIKNGRCEQFCKNSANNSVVCSCTEGYRLAENQKSCEPAVPFPCGRVSVSQTSKLTR
heavy: VVGGEDAKPGQFPWQVVLNGKVDAFCGGSIVNEKWIVTAAHCVETGVKITVVAGEHNIEETEHTEQNRSVIRIIPHHNYSAAINKYNHDIALLELDEPLVLNSYVTPICIADKEYTNIFLKFGSGYVSGWGRVFHKGRSALVLQYLRVPLVDRATCLRSTKFTIYNNMFCAGFHEGGRDSCQGDSGGPHVTEVEGTSFLTGIISWGEECAMKGKYGIYTKVSRYVNWIKEKTKLT
B2: FIXa variant D104N/K106S/Y155F/K247N/N249S/N260S (enzyme)
light: YNSGKLEEFVQGNLERECMEEKCSFEEAREVFENTERTTEFWKQYVDGDQCESNPCLNGGSCKDDINSYECWCPFGFEGKNCELDVTCNIKNGRCEQFCKNSANNSVVCSCTEGYRLAENQKSCEPAVPFPCGRVSVSQTSKLTR
heavy: VVGGEDAKPGQFPWQVVLNGKVDAFCGGSIVNEKWIVTAAHCVETGVKITVVAGEHNIEETEHTEQNRSVIRIIPHHNYSAAINKYNHDIALLELDEPLVLNSYVTPICIADKEYTNIFLKFGSGYVSGWGRVFHKGRSALVLQYLRVPLVDRATCLRSTKFTIYNNMFCAGFHEGGRDSCQGDSGGPHVTEVEGTSFLTGIISWGEECAMKGKYGIYTKVSRYVNWIKEKTKLT
B3: FIXa variant K247N/N249S/R318Y/R338E/R403E/E410N (enzyme)
light: YNSGKLEEFVQGNLERECMEEKCSFEEAREVFENTERTTEFWKQYVDGDQCESNPCLNGGSCKDDINSYECWCPFGFEGKNCELDVTCNIKNGRCEQFCKNSADNKVVCSCTEGYRLAENQKSCEPAVPFPCGRVSVSQTSKLTR
heavy: VVGGEDAKPGQFPWQVVLNGKVDAFCGGSIVNEKWIVTAAHCVETGVKITVVAGEHNIEETEHTEQNRSVIRIIPHHNYNAAINKYNHDIALLELDEPLVLNSYVTPICIADKEYTNIFLKFGSGYVSGWGRVFHKGYSALVLQYLRVPLVDRATCLESTKFTIYNNMFCAGFHEGGRDSCQGDSGGPHVTEVEGTSFLTGIISWGEECAMKGKYGIYTKVSEYVNWIKNKTKLT
notes: also called K82N/N84S/R150Y/R170E/R233E/E240N
B4: FIXa variant Y155F/K247N/N249S/R318Y/R338E/R403E/E410N (enzyme)
light: YNSGKLEEFVQGNLERECMEEKCSFEEAREVFENTERTTEFWKQYVDGDQCESNPCLNGGSCKDDINSYECWCPFGFEGKNCELDVTCNIKNGRCEQFCKNSADNKVVCSCTEGYRLAENQKSCEPAVPFPCGRVSVSQTSKLTR
heavy: VVGGEDAKPGQFPWQVVLNGKVDAFCGGSIVNEKWIVTAAHCVETGVKITVVAGEHNIEETEHTEQNRSVIRIIPHHNYNAAINKYNHDIALLELDEPLVLNSYVTPICIADKEYTNIFLKFGSGYVSGWGRVFHKGYSALVLQYLRVPLVDRATCLESTKFTIYNNMFCAGFHEGGRDSCQGDSGGPHVTEVEGTSFLTGIISWGEECAMKGKYGIYTKVSEYVNWIKNKTKLT
B5: FIXa-R318Y/R338E/T343R/E410N (enzyme)
chain 1: YNSGKLEEFVQGNLERECMEEKCSFEEAREVFENTERTTEFWKQYVDGDQCESNPCLNGGSCKDDINSYECWCPFGFEGKNCELDVTCNIKNGRCEQFCKNSADNKVVCSCTEGYRLAENQKSCEPAVPFPCGRVSVSQTSKLTR
chain 2: VVGGEDAKPGQFPWQVVLNGKVDAFCGGSIVNEKWIVTAAHCVETGVKITVVAGEHNIEETEHTEQKRNVIRIIPHHNYNAAINKYNHDIALLELDEPLVLNSYVTPICIADKEYTNIFLKFGSGYVSGWGRVFHKGYSALVLQYLRVPLVDRATCLESTKFRIYNNMFCAGFHEGGRDSCQGDSGGPHVTEVEGTSFLTGIISWGEECAMKGKYGIYTKVSRYVNWIKNKTKLT
notes: also called R150Y/R170E/T175R/E240N (chymotrypsin numbering)

The target in one assay is T1, Factor VIIIa (FVIIIa), from recombinant …. Kind of assay: apparent functional KD (KD-app): FX activation rate vs FVIIIa titration, fluorogenic Xase assay with PC/PS vesicles and Ca2+.
Text: The activity of alpha-thrombin was then quenched by the addition of a highly specific thrombin inhibitor, hirudin, prior to initiating the assay.
B1: the Kd was found to be 330 nM. For B2, the Kd worked out at 142 nM. Consider B3, for which the Kd came to 68.6 nM. The same measure, in the same setting: to B4 belongs 45.8 nM.

In a further assay the target is T2, Factor VIIIa (recombinant FVIII, …). In words: functional cofactor affinity KD-app: fluorogenic FX activation (Xase) assay, FVIIIa titrated, PC/PS vesicles, saturating FX.
Experimental: Reactions were monitored in a SpectraMax fluorescence plate reader for 30 min at 37° C. A standard curve of free AMC served as the conversion factor for RFU to μM in the subsequent data analysis calculations using a dose range that covered 0 μM to 100 μM AMC.
As to B5, the Kd was found to be 6.1 nM.
